In PMC3501484:

Biological target: Flk1 (UniProt P35918)
UniProt P35918, sequence (P35918 20-1345): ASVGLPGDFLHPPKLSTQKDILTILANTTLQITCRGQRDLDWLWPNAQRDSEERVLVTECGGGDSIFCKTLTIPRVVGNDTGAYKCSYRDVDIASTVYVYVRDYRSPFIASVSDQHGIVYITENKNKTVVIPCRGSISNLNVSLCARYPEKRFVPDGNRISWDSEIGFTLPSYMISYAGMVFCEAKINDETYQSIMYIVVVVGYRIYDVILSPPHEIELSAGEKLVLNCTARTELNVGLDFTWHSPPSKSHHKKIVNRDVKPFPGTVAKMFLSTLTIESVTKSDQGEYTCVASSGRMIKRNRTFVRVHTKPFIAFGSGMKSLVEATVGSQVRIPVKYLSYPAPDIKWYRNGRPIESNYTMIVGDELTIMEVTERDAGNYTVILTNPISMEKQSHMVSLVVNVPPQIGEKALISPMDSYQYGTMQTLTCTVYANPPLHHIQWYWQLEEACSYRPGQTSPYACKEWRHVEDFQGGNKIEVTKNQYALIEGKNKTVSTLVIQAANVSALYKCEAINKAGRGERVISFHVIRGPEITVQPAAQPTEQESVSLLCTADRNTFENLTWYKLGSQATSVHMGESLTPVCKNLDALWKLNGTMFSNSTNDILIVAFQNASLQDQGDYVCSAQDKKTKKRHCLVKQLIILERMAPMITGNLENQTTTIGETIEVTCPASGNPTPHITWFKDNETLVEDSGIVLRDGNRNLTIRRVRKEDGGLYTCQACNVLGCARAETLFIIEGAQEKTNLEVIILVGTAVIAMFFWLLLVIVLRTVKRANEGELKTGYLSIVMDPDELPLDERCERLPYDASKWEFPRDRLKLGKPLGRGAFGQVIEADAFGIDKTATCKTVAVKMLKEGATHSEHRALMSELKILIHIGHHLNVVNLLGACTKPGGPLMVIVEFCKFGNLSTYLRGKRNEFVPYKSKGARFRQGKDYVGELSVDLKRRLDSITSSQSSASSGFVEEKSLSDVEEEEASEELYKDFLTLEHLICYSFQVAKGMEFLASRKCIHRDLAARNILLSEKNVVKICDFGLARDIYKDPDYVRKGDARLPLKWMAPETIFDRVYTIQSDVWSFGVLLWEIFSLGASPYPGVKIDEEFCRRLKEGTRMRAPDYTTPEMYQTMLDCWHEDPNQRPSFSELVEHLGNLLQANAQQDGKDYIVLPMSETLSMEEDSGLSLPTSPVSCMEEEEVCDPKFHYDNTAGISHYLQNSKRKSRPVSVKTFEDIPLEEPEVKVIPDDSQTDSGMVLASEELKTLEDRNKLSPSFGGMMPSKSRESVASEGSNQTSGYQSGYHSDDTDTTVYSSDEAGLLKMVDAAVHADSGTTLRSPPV

## VEGF 165 (ligand)
  3.9 kb Etv2 luciferase reporter (standardized to Renilla) in 293T cells cotransfected with the Flk1 expression vector, VEGF 50 ng/ml for 2, 6 or 18 hours: 15 fold
